From a protein production outcome set (Wang et al. 2014)

test: label from the status in PepcDB records

Sequence | protein production
MSLDYTYADDSLTLHTDMYQINMMQTYWELGRADLHAVFECYFREMPFNHGYAIFAGLERLVNYLENLTFTESDIAYLREVEEYPEDFLTYLANFEFKCTVRSALEGDLVFNNEPLIQIEGPLAQCQLVETALLNMVNFQTLIATKAARIKSVIGDDPLLEFGTRRAQELDAAIWGTRAAYIGGADATSNVRAGKIFGIPVSGTHAHSLVQSYGNDYEAFMAYAKTHRDCVFLVDTYDTLKAGVPSAIRVAREMGDKINFLGVRIDSGDMAYISKRVREQLDEAGFTEAKIYASNDLDENTILNLKMQKSKIDVWGVGTKLITAYDQPALGAVFKLVSIEGEDGQMKDTIKLSSNAEKVTTPGKKQVWRITRKSDKKSEGDYVTLWNEDPRQEEEIYMFHPVHTFINKYVRDFEARPVLQDIFVEGKRVYELPTLDEIKQYAKENLDSLWEEYKRDLNPQKYPVDLSTDCWNHKMNLLEKVRKDVKHLTETVNKEAEGHHHHHH | not failed
MSLEAIRIGEINSYSQIPAFTLPYRNGWQLAVEQINAAGGLLGGRPLEVISRDDGGDPGKAVTAAQELLTRHGVHALAGTFLSHVGLAVSDFARQRKVLFMASEPLTDALTWEKGNRYTYRLRPSTYMQAAMLAAEAAKLPITRWATIAPNYEYGQSAVARFKELLLAARPEVTFVAEQWPALYKLDAGPTVQALQQAEPEGLFNVLFGADLPKFVREGRVRGLFAGRQVVSMLTGEPEYLNPLKDEAPEGWIVTGYPWYDIDTAPHRAFVEAYRARWKEDPFVGSLVGYNTLTAMAVAFEKAGGTESETLVETLKDMAFSTPMGPLSFRASDHQSTMGAWVGRTALRDGKGVMVDWRYVDGGSVLPPPEVVSAWRPAGEGHHHHHH | not failed
MSLEFFMAKADNPAFEQGQSPRMRLPDSVPLLIVGGGIMGLWAAVKAERLGIGTLLVEAGRLGGGASGGLLGALMPHMPDRWSDKKQFQFDALVALEAEIAGLEAETGLSGGYRRCGRIIPLPKPHLRGIAERHERDAAENWRSGERRFQWHVGERPSVAGWVDDAAGEAGFVFDTLAARVSPRALIALLSAFLRKARHVQVAEGCRVVSLDADAGRAALSSGEEISFGHVVVANGHESFPLIRDALGLEAGVALGQAVKGQAALLDASADPAMPVVFLNGLYIVPHEDGTVAIGSTSEDCFSEPFSTDEKLEKLLVDACTVVPSLAGAPVLERWAGLRPKAVGRDPMVGAMAGTAKLVALSGGFKVSFGLAHFLADAALETVCGHTPVIPSGFRLQEHVSIAVPDFRKFLEHHHHHH | failed
MSLEKQKGLAIITGASQGIGAVIAAGLATDGYRVVLIARSKQNLEKVHDEIMRSNKHVQEPIVLPLDITDCTKADTEIKDIHQKYGAVDILVNAAAMFMDGSLSEPVDNFRKIMEINVIAQYGILKTVTEIMKVQKNGYIFNVASRAAKYGFADGGIYGSTKFALLGLAESLYRELAPLGIRVTTLCPGWVNTDMAKKAGTPFKDEEMIQPDDLLNTIRCLLNLSENVCIKDIVFEMKKSIIEGHHHHHH | not failed
MSLEKWRIYEELTNAVREFESINPVRLIPEVGTNFVYSLPLPYARSTKDVAGVKGRIVKYGNSVKAVGPVEFGASDHLARAVLTYMRFYPEYRSAINIRYSREIIEEIIEIAQERGFKVSFYDRREEPEEIKAKEGATIPWGIETAIKRIKERPDIIYHLGDVGKEPMILVFGRNPREVLEKIKMLIEGHHHHHH | not failed
MSLELEWMSIDDLKLPSNVIDIIKNRGIKKLNPPQTEAVKKGLLDGNRLLLTSPTGSGKTLIAEMGIISFLLKNGGKAIYVTPLRALTNEKYLTFKDWESIGFKVAMTSGDYDTDDAWLKNYDIIITTYEKLDSLWRHRPDWLNEANYFVLDELHYLNDPERGPVVESVTIRAKRRNLLALSATISNYKQIAKWLGAEPVATNWRPVPLMEGVMYPERKKKEYTILFRDNTARKVHGDDAIIAYTLDSLSKNGQVLVFRNSRKMAESTALKIANYMNFVSLDEKAISEILKQLDDIEEGGSDEKELLKSLISKGVAYHHAGLSKALRDIIEESFRKRKIKVIVATPTLAAGVNLPARTVIIGDIYRFNRKIVGYYDEIPVMEYKQMSGRAGRPGFDQIGESIIVVRDKEDVDRVFKKYILSDVEPIESKLGSERAFYTFLLGILSAEGSLSEKQLEAFAYESLLAKSVVDVYFDRAIRWLSEHSFIREENNTFTLTNFGKRVADLYINPFTADIIRKGLEGYKASCEIAYLHLLAFTPDGPLVSVGRNEEEELIELLEDLECELLVEEPYEEDEYSLYLNALKVALIMKDWIDEVDEDTILGKYNIGSGDLRNIVETMDWLTYSAYHLSKELRLDDHSDKLRILNLRVTDGVKEELLELVQIGGVGRKRARLLYNNGIKGLGDVVMNPDRVRNLLGQKLGERVVQEAARLLNRFH | failed
MSLENKENLVVIDLAIAEDSIQKKNIVYDKNGQNHFDVISAFIKSIRGSDPDATLYWLANMVEAGEDPNFIFRRLLISACEDIGLADPNAIVVVQSCCDAFDRVGFPEGLFFLSQASLYLAISPKSNSTKSIFKAMEAIKATNVSLVPNHLKNNASNYLNPHNYQGKWLQQEYLPTDLQGIKFWKPKDSGWEKNKYEDLPKKQKSEGHHHHHH | not failed
MSLESGFLEDAQANLTLRNFYFNRNFTNPTKAQGKAEEWTQSFILDAKSGFTQGTVGFGMDVLGLYSLKLDGGKGTGGTQLLPLDHDGRPADNFGRLGVAFKARLSQTEVKVGEWMPVLPILRSDDGRSLPQTFRGGQITSKEIAGLTLYGGQFRANSPRDDSSMSDMSMFGKAAFTSDRFNFQGAEYAFNDKRTQIALWNAQLKDIYSQQFINLIHSQPLGDWTLGANLGFFYGKEDGSARAGDMENRTWSGLFSAKYGGNTFYVGLQKLTGDSAWMRVNGTSGGTLANDSYNASYDNAKEKSWQVRHDYNFAALGVPGLTLMNRYISGSNVHTATVSDGKEWGRESEVAYTVQSGTLKNLNLKWRNSTMRRDFSNNEFDENRLIISYPLSLLEGHHHHHH | not failed
MSLFIALCGLILAGRLILKNYNPQGVLFFVGIVMMTISIFTNNATFVDKSTGWIGFDVFEYISMVFGKQSGGLGLKIMLIGGFALLMSAIGASQVMVKLTAKPLMKLNSPYLMLALAFILGQMLSLFISSATGLGLLLMATLYPVLIRLGCSKAGVASVLASTCAIEFGPGSGNSILAAQTAGLEITEYFVGEQLPIISVLIIVVAIMHAITQRFFDRNDEKNQTLEPINYEDIESEQSAPFYYVILPMLPLFFMLTFSSLGVKTINVGMATAIILSIFISLVFEFIREREVKPVFEKLQGVFDDMGKVFASVVTLIIAGQTFSMGLKSIGAIDSMLHMASSVGLSAAVIILFMALLTFIISALMGSGNAAFFSFAPMVPQIAHKIGANTVDMILPIQLSAGFGRTISPIAGVIIAVAGISGLSPFDIVRRTLIPMVSGWLLMLILTFSKGGQLEQLMPFLIVILVLSVGVGWIMKRKNNRTQLTQ | failed
MSLFKRSVVSEITSHAGVVFSTLVVVWLSVLLVRLLGEAAGGSIGADVVLGLAAFSTITALPTILAVSLFIAVLTTVTRNYRESEMVVWFASGLSLADWLRPVARVAVPIAMLVAALTLVASPWAYRQIGEYRERFEQRSDLSKVTAGQFAESGRGDRVFFAEDPVRPGDELGAVFARSIDPEWLSVLTASNARSETLPNGDRFLVLGEGHRYDLKPGTPEIRLVNFDQYGVRLESKAGEDPMAEARAAAERFSKARSTMQLVQDNTDSSWSQIMWRVAMPLAALNLALLAIPLGAVNPRLGRSGDLLIAGLVGLLYMNMINLSRAWISSGKISFSIGVWAVHAVVALLAAYLLMRRLRVKAPRNAGRGA | failed
MSLGALPTAEDIDAVVLDFDGTQTDDRVLIDSDGREFVSVHRGDGLGIAALRKSGLTMLILSTEQNPVVAARARKLKIPVLHGIDRKDLALKQWCEEQGIAPERVLYVGNDVNDLPCFALVGWPVAVASAHDVVRGAARAVTTVPGGDGAIREIASWILGPSLDSLDKEGHHHHHH | not failed
MSLGKRMGAELIGTFWLVLGGCGSAVLAASSPLGIGVLGVAFAFGLTVLTMAFAIGHISGCHLNPAVSFGLVVGGRFPAKELLPYVIAQVIGAILAAGVIYLIASGKAGFELSAGLASNGYADHSPGGYTLGAGFVSEVVMTAMFLVVIMGATDARAPAGFAPIAIGLALTLIHLISIPVTNTSVNPARSTGPALFVGGWALQQLWLFWVAPLIGAAIGGALYRGLAKEP | failed
MSLGLDYEPSHLMFLVTVLDDRDGEVLGDAIQKLIEREEVLACHAVPCVTKKNRPGHVLVVLVDGGEDPDRVAEDVARDIMVLTGSTGVDRFDADGVYSVPSRFEDVRVVYGEREWRVSVKIAETEEGEVVTVKAEFDECREIGEETGIPPREVKAMVEAAARVGGWVDLKEREIKVQEGHHHHHH | not failed
